Assay: yeast display, Sf9 membrane polyspecificity reagent, FACS + sequencing; frameworks hold sequencing errors
In short: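 Genes from sorted yeast were amplified by colony PCR, read by MiSeq 2 × 250 sequencing and filtered on CDR length. These cells carried a synthetic nanobody library in Saccharomyces cerevisiae BJ5465 and were sorted by FACS into low and high (top ~1%) gates on anti-HA and streptavidin fluorescence. Polyreactivity is labelled according to the gate of origin.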

Sequence | polyreactivity (PSR sort gate)
QVQLVESGGGLVQAGGILRLSCAASGSTFSSNAMGWYRQAPGKERELVAAISKRGGRTYYADSVKGRFTISRDNAKNTVYLQMNSLKPEDTAVYYCAAEYWVPAWKFGYEYWGQGTQVTVSS | high polyreactivity
QVQLVESGGGLVQAGGSLRLSCAASGRTFAFHDRGWYRQAPGNERELVAALTSVASTYYADSVKGRFTISRDNAKNTVYLQMNSLKPEDTAVYYCAADTRSLRPRYQLYGEDSWGQGTQVTVSS | low polyreactivity
QVQLVESGGGLVQAGGSLRLSCAASGSIFLPYAMGWYRQAPGKEREFVAAIRWSTGRTFYADSVKGRFTISRDNAKNTVYLQMNSLKPEDTAVYYCAAVWPDVRGYDYWGQGTQVTVSS | high polyreactivity
QVQLVESGGGLDQAGGSLRLSCAASGRTFYYYAMAWYRQAPRTERELVAAIRRSGSSTYYADSVKGRFTISRDNAKNTVYLQMNSLKPEDTAFYYCAAAVYQRARYYWGQGTQVTVSS | high polyreactivity
QVQLVESGGGLVQAGGSLRLSCAASGFTFWRNALGWYRQAPGKERELVAAISWRGGSTYYADSVKGRFTISRDNAKNTVSLQINSRKPEDTAGYYCNVVYFRYYSGEYDYGGQGTQVTVSS | high polyreactivity
QVQLEESGGGLVQAGGSLRLSCAASGSTFVYNALGWNRQAPGKEREFVAVINWSGGRTYADSVKGRFTISRDNAKTTVYLQMNSLNPDETEVYYCNAERRSYRFALQYRRYDYWGEGTQVTVSS | high polyreactivity
QVQLVESGGGLVQAGGSLRLSCAASGIIFSKNTMGWYRQAPGKERELVAAISRSGGTSTYYADSVKGRFTISRDNAKNTVYLQMNSLKPEDTAVYYCAAGVPRIGGYYYWGQGTQVTVSS | low polyreactivity
QVQLVESGGGLVQAGGSLRLSCAASGLTFGDYSMGWYRQAPGKERELVAAITWSGASTYYADSVKGRFTISRDNGMNTVYLQMNSLKPEDTAVYYCAAERTPSYRAYDYWGQGTQVTVSS | low polyreactivity
QVQLVESGGGLVQAGGSLRLSCAASGITFLFYAMGWYIPAPGKEREYVAAISTRGGRTYYADSVKGRFTISRDNAKNTVYLQMNSLKPEDTAVYYCAADFYYRTVATVTSVARYDYWGQGTQVTVSS | high polyreactivity
QVQLVESGGGLVQAGGILRLSCAASGFIFAPNAMGWYRQPPGKERELVAAISASGGSTYYADSVKGRFTISRDNAKNTVYLQMNSLKPEDTAVYYCAADRTFSSFPEYNYWGQGTQVTVSS | low polyreactivity
QVQLVESGGGLFQEGGSLRVSCAASGRIFIANAMGWYRQAPGKERELVAAISFSGGSTYYADSVKGRFTISRDNAKSTVYLQLNSLKPEDTAVYFCIKVGIRYYYGYDYWGHGTQVTVSS | high polyreactivity
QVQLVESGGGLVQAGGSLRLSCAASGRIFSRYAMGWDRQAPGKERELVAAINNGGSTYYADSVKGRFTISRDNAKNTVYLQMNSLKPEDTAVYYCAKLWWSNFKPVEYWGQGTQVTVSS | low polyreactivity
QVQLVESGGGLVQAGGSLRLSCAASGSIFFSNVMGWYRQAPGKERELVAAIRWSGDSTYYADSVKRRFTISRDNAKNTVYLQMNSLKPEDTAVYYCARDVYGSVSVSGYYYWGQGTQVTVSA | low polyreactivity
QVQLVESGGGIVQAGGSLRLSCAASGRIFGIYERGWLRQAPGKEREMVAGITRGDRTYADSVKGRFTISRDNAKNTVYLQMNSLKPVDTAVYYCNADVYPYKLALPAGMGYWGQGTQVTVSS | high polyreactivity
QVQLVESGGGLVQAGGSLRLSCAASGSTFTDNTMGWYRQAPGKERELVAAISGVGSTYYADSVKGRFTISRDNAKNTVYLQLNSLKPEVSAVYYCAKPYYDGRTHFVSWGQGTQVTVSS | low polyreactivity
QVQLVESGGGLVHAGGSLRLSCAASGIIFDDYAMGSYRQPPGKERELVAAISGRGGRTYYADSVKGRFTISRDNAKNTVYLQMNSLKPEDTAVYYCAGGGRVRYDYWGQGTQVTVSS | low polyreactivity
QVQLQESGGGLVQAGGSMRLSCAASGSISELRPMGWYRQAPCKQRELDAGISTGGSTNYADSVKGRFTISRDNAKNTVYLQMNSLKPEDTAVYYCASASYGEGTYDYWGQGTQVTVRS | high polyreactivity
QVQLVESGGGLVQAGGSLRLSCAPSGSTFRTYAMGWYRQAPGKERELVAAISSGDNTNYADSVKGRFTISRDNAKNTAYLQMNSLKPEDTAVYYCASRAYRWRSFYTMYYCGQGTQVTVSS | high polyreactivity
QVQLVESGGGLVQAGGSLRLSCAASGITFYGYAMGWYRQAPGKERELVAAISKSGGSTHYADSVKGRFTISRDNAKNTVYLQMNSLKPEDTAVYYCAAAYWTRLRRMDYWGQGTQVTVSS | low polyreactivity
QVQLVESGGGLVQAGGSLRLSCAASGPTFQIYAMGSYRQAPGNERELDAAIRWRGGTTYYADSVKGRFTISRDNAKNTVYLQMNSLTPEDTAVYYCAADYYWSPYYVYQFDYWGQGTQVTVSS | low polyreactivity
QVQLVESGGRLVQAGGSLRLSCAASGRLFASNAMGWYLQAPGTEMELVAGNSRNGGSTFYADSVKGRFTISRDNAKNTVYLQMNSRKPEDSAVYYCARYYTHSGGYRDRIYYFWGQGTQVTVSS | low polyreactivity
QVQLVESGGGLVQAGGSLRLSCAASGSIFLWNAMGWYRQAPGKEREFVASITSRGGSTYYADSVKGRFTISRDNAKNTVYLQMNSLKPEDTAVYYCAAVRSKYWYYQGGYSSYGYWGQGTQVTVSS | high polyreactivity

Sequence | polyreactivity (PSR sort gate)
QVQLVESGGGLVQAGGSLRLSCAASGLIFAEYAMGWYRQAPGKERELVARITSAGSTDYADSVKGRFTISRDNAKNTVYLQMNSLKPEDTAVYYCAARYYSQDKNASTASDFDYWGQGTQVTVSS | low polyreactivity
QVQLVESGGGLVQAGGSLRLSCADSGSIFQYNTMGWYRQAPGKERELVADINGRGGSTYYADSVKGRFTISRDNAKNTVYLQMNSLKPEDTAVYYCAVEGVSTYLWTSYGYWGQGTQVTVSS | low polyreactivity
QVQLVESGVGLVQAGGSLRLSSAASGFTFIYYPMGWYRPAPGKERELVAAITSGGNTYYADSVKGRFTISRDNAKNSVYFQMNSLKPEDTAVYYCNKVPHREWVGGYDYWGQGTQVTVSS | low polyreactivity
QVQLVESGGGLVQAGGSLRLSCAASGFLPNAMGWYRQAPGKERELVAAISSRGGSTYYADSVKGRFTISRDNAKNTVYLQMISLKPEDTAVYYCAATYYGRDGYRYDYWGQGTQVTVSS | high polyreactivity
QVQLVESGGGLVQAGGSLRLSCAASGSTFVWYAMGWYRQAPGKERELVASITSGGNTNYADSVKGRFTISRDNAKNTVYLQMNSLKPEDSAVYYCNAVRSQRSLSSRYYYWGQGTQVTVSS | low polyreactivity
QVQLVESGGGLVQAGGSLRLSCAASGRIFTGYAMGWYRQAPGKERELVAVISSSTDRTYSADSVKGRFTISRDNAKNTVYFQMNSLKPEDTAVYYCAARPYRHKSRRYDYWGHGTQVTVSS | high polyreactivity
QVQLVESGGGLVQAGGSLRLSCAASGSTFYRNAMGWYRQAPGKERELVATISTGGVSTYYADSVKGRFTISRDNAKNTVYLQMNSLKPEDTAVYYCAKRTVYLSNLDYWGQGTQVTLSS | low polyreactivity
QVQLVESRGGLVQAGGSLRLSCAASGLTFVYYAMGWYRQAPGKERELVASIDYSGSSTYYADSVKGRFTISRDNAKNTVYLQMNSLKPEDTAVYYCAATDSGEYWGQGTQVTVSS | low polyreactivity
QVQLVESGGGLVQAGGSLRLSCAASGSILIGNAMGWYRQAPGKERELVAAIRSGGSTNYADSVKGRFTISRDNAKNTVYLHMNSLKPEDTAVYYCARDVYVYYPYYAYDYWGQGTQVTVSS | low polyreactivity
QDQLVESGGGLVQAGGSLRLSCAASGRIFYFNTMGWSRQAPGKERELVAAISKNGGSTYYADSVKGRFTISRDIAKNTVYLQMNSLKPEDTAVYYCAKTRRLSPYDYWGQGTQVTVSS | high polyreactivity
QVQLVESGGGLVQAGGSLRLSCAASGFIFYYYAMGWYRQAPGKERELVAAISVRGGRTYYADSVKGRFTISRDNAKNTVYLQMNSLKPEDTAVYYCAADLYNRGRGSSQSYRTGYDYWGQGTQVTVSS | high polyreactivity
QVQLVESGGGLVQAGGSLRLSCAASGFTLIADDMGGYRQAPGKERELVAGISSGDSTDYADSVKGRFTISRDNAKNTVYVQMNSLTPEDTAVYYCAATWYGDYSRYDFYYWGQGTQVTVSS | low polyreactivity
QVQLVESGGGLVQAGGSLRLSCAASGRIFDHYTLGWYRQAPGKERDFVAAISSSGGSTYYADSVKGRFTSSRDTAKNTVYLQLNSLKPEDTAVYDCAAVYHRLWGYDYWGQGPQVTVSS | high polyreactivity
QVQLVESGGGLVQAGGSLRLSCAASGSIFTSYAMGWSRQAPGKERELVAAITSGGSTNYADSVKGRFTISRDNAKNTVYLQMNSLKPEDTAVYYCNAKWYWYLTRDAYRYRYTYDYWGQGTQVTVSS | low polyreactivity
QVQLVESGGGLVQAGGSLRLSCAASGIIFWWYAMGGDRQAPGKERELVAAISGTGGSTYYADSVKGRFTISRDNAKNTVYLQMNTLKPEDTAVSYCPARGTSSSYYDYDYWGQGTQVTVSS | low polyreactivity
QVQLVESGGGLVQAGGSLRLSCAASGFIFITVNAMGWYRQAPGKEREFVAAITRSGTGTYYADSVKGRFTISRDNAKNTVYLQMNSLKPEDTAVYYCAADATSTGAYDYWGQGTQVTVSS | low polyreactivity
QVQLVESGGGLVQAGGSLRLSCAASGRTFQLNAMGWYRQAPGKEREVVAAISTRGGSTYYADSVKGRFTISRDNAKNTVYLQMHRLKPEDTAVYYCAKDPSFTRGYKEGGGYDYWGQGTQVTVSS | high polyreactivity
QVQLVESGGGLVQAGGSLRLSCAASGSTFWVNALGWSRQAPGKERELVAVITVTGSRTYYADSVKGRFTISRDNAKNTVYLQMNTLKPEDTAVYYCAADRRRVQYKFDYWGQGTQVTVSS | low polyreactivity
QVQLVESGGGLVQAGGSLRLSCAASGSSSRRMIMGRYRQAPGKERELVAAISGSGGSTYYADSVKGRFTISRDNAKNTVYLQMNSLKPEDTAVYYCAAVLQSCYGYEYWGQGTQVTVSS | high polyreactivity
QVQLVESGGGLVQAGGSLRLRCAASGYTFRGNAMAWYSQAPGKERDLVAGISQTGGNTYYADSVKGRFTISRDNAKNTVYLQMNSLKPEDTAVYYCATTRRPYVRGYPHYYWGQGTEVTVSS | high polyreactivity
QVQLVESGGGLVQAGGSLRLSCAASGRTFYYYAMGWYRQAPGKERELVAGIDFSSGSTYYADSVKGRFTISRDNAKNTVYLQMNSLKPEDTAVYYCAAKWHVRGRGARYRYDYDYWGQGTQVTVSS | low polyreactivity

From the nanobody polyreactivity screen of Harvey et al. (2022)
